# Where two headings read alike, the source gives them in different places.
# T1: hP40 (human, UniProt P29460 23-328)
# T1 construct: bought
# T1 sequence (looked up): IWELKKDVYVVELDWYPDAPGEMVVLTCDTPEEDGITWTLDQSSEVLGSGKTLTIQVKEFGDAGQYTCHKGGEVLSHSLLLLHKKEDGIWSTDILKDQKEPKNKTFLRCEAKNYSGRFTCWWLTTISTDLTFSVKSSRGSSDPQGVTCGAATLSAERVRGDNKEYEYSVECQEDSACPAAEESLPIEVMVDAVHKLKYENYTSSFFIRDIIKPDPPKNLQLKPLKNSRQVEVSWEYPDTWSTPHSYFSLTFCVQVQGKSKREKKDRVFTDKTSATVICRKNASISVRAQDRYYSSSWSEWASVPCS
# T2: hB7H3 antigen protein (human, UniProt Q5ZPR3 29-461)
# T2 construct: prepared in the laboratory
# T2 sequence: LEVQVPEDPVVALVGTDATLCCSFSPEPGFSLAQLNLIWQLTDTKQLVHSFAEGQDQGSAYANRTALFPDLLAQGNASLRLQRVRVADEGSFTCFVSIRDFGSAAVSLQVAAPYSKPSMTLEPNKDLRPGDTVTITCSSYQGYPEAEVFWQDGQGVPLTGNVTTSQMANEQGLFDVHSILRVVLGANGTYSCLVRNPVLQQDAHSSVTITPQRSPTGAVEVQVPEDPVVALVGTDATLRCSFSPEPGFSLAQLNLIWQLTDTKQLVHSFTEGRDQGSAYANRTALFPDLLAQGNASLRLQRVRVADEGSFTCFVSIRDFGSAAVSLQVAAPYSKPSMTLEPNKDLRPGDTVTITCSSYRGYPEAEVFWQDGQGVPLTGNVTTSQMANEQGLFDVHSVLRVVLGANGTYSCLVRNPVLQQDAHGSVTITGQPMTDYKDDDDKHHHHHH
# T3: hCD3 antigen protein (heterodimer of delta and epsilon subunits) (human)
# T3 construct: prepared in the laboratory
# T3 chain 1: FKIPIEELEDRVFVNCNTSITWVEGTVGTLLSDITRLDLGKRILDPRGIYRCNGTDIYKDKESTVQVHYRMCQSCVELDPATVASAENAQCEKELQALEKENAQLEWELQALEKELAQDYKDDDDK
# T3 chain 2: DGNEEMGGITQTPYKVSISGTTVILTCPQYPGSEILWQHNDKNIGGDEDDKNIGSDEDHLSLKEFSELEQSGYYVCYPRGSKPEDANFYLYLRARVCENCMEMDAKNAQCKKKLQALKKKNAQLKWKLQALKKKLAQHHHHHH
# Experiments:
# [1] = biological target: T4, hBAFF (human, UniProt Q9Y275 134-285); test: SPR Biacore T200, antibody captured on Protein A chip
# T4 construct: bought
# Description: (§1) The affinity of a test antibody for an antigen protein was determined by using a Biacore T200 (GE) instrument to verify that the CH1-CL domain-engineered bispecific antibodies of the present disclosure could bind to two target antigens simultaneously. […] The data was fitted with BIAevaluation version 4.1, GE software using a (1:1) Langmuir model. […] The data was fitted with BIAevaluation version 4.1, GE software using a (1:1) Langmuir model.
# [2] = biological target: T4, hBAFF; test: ELISA
# Description: (§2) For an antibody targeting a soluble protein, the binding activity of the antibody against the soluble protein was detected by ELISA. […] After the blocking was completed, the blocking solution was discarded; and the plate was washed 3 times with a PBST buffer (pH 7.4, PBS containing 0.1% tween-20). 100 μL of the antibody solution diluted in a gradient was added to each well, and the mixture was incubated at 37° C. for 1 h. After the incubation was completed, the plate was washed 3 times with PBST. […] The plate was washed 3 times with PBST. […] The reaction was stopped by adding 50 μL of 1 M H₂SO₄ to each well. The absorbance values at 450 nm were read on a microplate reader, the binding curves of the antibodies to an antigen were fitted with software, and the EC₅₀ values were calculated.
# [3] = biological target: T4, hBAFF; test: SPR Biacore T200, antibody captured on Protein A chip; remark: listed apart in the source
# Description: (§3) The affinity of a test antibody for an antigen protein was determined by using a Biacore T200 (GE) instrument. […] The data obtained from the experiment was fitted with BIAevaluation version 4.1, GE software using a (1:1) Langmuir model to obtain affinity values.
# [4] = biological target: T4, hBAFF; test: ELISA; remark: listed apart in the source
# Description: as §2
# [5] = biological target: T1, hP40; test: SPR Biacore T200, antibody captured on Protein A chip
# Description: as §3
# [6] = biological target: T1, hP40; test: ELISA
# Description: as §2
# [7] = biological target: T2, hB7H3 antigen protein; test: SPR Biacore T200, antibody captured on Protein A chip
# Description: as §3
# [8] = biological target: T3, hCD3 antigen protein (heterodimer of …); test: as above
# Description: as §3
# [9] = biological target: T1, hP40; test: SPR Biacore T200, BU5 captured, hP40 injected after saturation with hBAFF
# Description: as §1
# [10] = biological target: T4, hBAFF; test: SPR Biacore T200, BU5 captured, hBAFF injected after saturation with hP40
# Description: as §1
# [11] = biological target: T5, hTSLP (human, UniProt Q969D9 29-159); test: ELISA
# T5 construct: bought
# Description: as §2
binder,measurement,setting,value
"Bmab (antibody, human IgG1, lambda, also called B0) heavy: not shown light: SSELTQDPAVSVALGQTVRVTCQGDSLRSYYASWYQQKPGQAPVLVIYGKNNRPSGIPDRFSGSSSGNTASLTITGAQAEDEADYYCSSRDSSGNHWVFGGGTELTVLGQPKAAPSVTLFPPSSEELQANKATLVCLISDFYPGAVTVAWKADSSPVKAGVETTTPSKQSNNKYAASSYLSLTPEQWKSHRSYSCQVTHEGSTVEKTVAPTECS",Kd,[1],0.864 nM
same,koff,[1],0.000153 s⁻¹
same,kon,[1],177000 M⁻¹ s⁻¹
same,EC50,[2],0.2 nM
same,Kd,[3],0.855 nM
same,koff,[3],0.000152 s⁻¹
same,kon,[3],177000 M⁻¹ s⁻¹
same,EC50,[4],0.219 nM
"BU1 (bispecific antibody, human IgG1, lambda, L234A L235A) heavy 1: not shown light 1: SSELTQDPAVSVALGQTVRVTCQGDSLRSYYASWYQQKPGQAPVLVIYGKNNRPSGIPDRFSGSSSGNTASLTITGAQAEDEADYYCSSRDSSGNHWVFGGGTELTVLGQPKAAPSVTLFPPSSEELQANKATLVCLISDFYPGAVTVAWKADSSPVKAGVETTTPSKQSNNKYAASSYLSLTPEQWKSHRSYSCQVTHEGSTVEKTVAPTECS heavy 2: EVQLVQSGAEVKKPGESLKISCKGSGYSFTTYWLGWVRQMPGKGLDWIGIMSPVDSDIRYSPSFQGQVTMSVDKSITTAYLQWNSLKASDTAMYYCARRRPGQGYFDFWGQGTLVTVSSGGGGSGIPPKIECLPSDISIDEGKVLTVASAFTGEPTPEVTWSTGGRKIHSQEQGRFHIESTEDLTTLIISDVQKQDGGLYSLSLGNEFGSDSATVNIHIRSIDKTHTCPPCPAPEAAGGPSVFLFPPKPKDTLMISRTPEVTCVVVDVSHEDPEVKFNWYVDGVEVHNAKTKPREEQYNSTYRVVSVLTVLHQDWLNGKEYKCKVSNKALPAPIEKTISKAKGQPREPQVCTLPPSREEMTKNQVSLSCAVKGFYPSDIAVEWESNGQPENNYKTTPPVLDSDGSFFLVSKLTVDKSRWQQGNVFSCSVMHEALHNHYTQKSLSLSPGK light 2: DIQMTQSPSSLSASVGDRVTITCRASQGISSWLAWYQQKPEKAPKSLIYAASSLQSGVPSRFSGSGSGTDFTLTISSLQPEDFATYYCQQYNIYPYTFGQGTKLEIKGGGGSSGAPRFLTRPLSYVVSVGKDASLSSQIVGNPTPQVSWEKDQLPVTAGARFRLAQDGDLYRLKILDLQLSDSGQYVSRARNAIGEAFACVGLEVGAEA",Kd,[5],0.0349 nM
same,koff,[5],4.81e-05 s⁻¹
same,kon,[5],1.38e+06 M⁻¹ s⁻¹
same,Kd,[3],0.499 nM
same,koff,[3],0.000169 s⁻¹
same,kon,[3],338000 M⁻¹ s⁻¹
same,EC50,[6],0.084 nM
same,EC50,[4],0.356 nM
"FA-1 (bispecific antibody, also called FA-1 bispecific antibody) heavy 1: QVQLVQSGGGVVQPGTSLRLSCAASGFIFSSSAMHWVRQAPGKGLEWVAVISYDGSNKYYVDSVKGRFTISRDNSKNTLYLQMNSLRAEDTAVYYCARSARLYASFDYWGQGALVTVSSGGGGSGIPPKIECLPIDISIDEGKVLTVASAFTGEPTPEVTWSTGGRKIHSQEQGRFHIENTDDLTTLIIKDVQKQDGGLYTLTLRNEFGSDSATVNIHIRSIDKTHTCPPCPAPEAAGGPSVFLFPPKPKDTLMISRTPEVTCVVVDVSHEDPEVKFNWYVDGVEVHNAKTKPREEQYNSTYRVVSVLTVLHQDWLNGKEYKCKVSNKALPAPIEKTISKAKGQPREPQVCTLPPSREEMTKNQVSLSCAVKGFYPSDIAVEWESNGQPENNYKTTPPVLDSDGSFFLVSKLTVDKSRWQQGNVFSCSVMHEALHNHYTQKSLSLSPGK light 1: DTVVTQEPSFSVSPGGTVTLTCGLSSGSVSTSHYPSWYQQTPGQAPRMLIYNTNTRSSGVPDRFSGSILGNKAALTITGAQADDESDYYCAIHVDRDIWVFGGGTKLTVLGGGGSSGAPRFLTRPLAFVVSVGKDATLSSQIVGNPTPQVSWEKDKQPVTAGARFRLAQDGDLYRLKILDLQLSDSGQYVSRARNAIGEAFACLGLQVDAEA heavy 2: not shown light 2: not shown",Kd,[7],45 nM
same,koff,[7],0.00712 s⁻¹
same,kon,[7],158000 M⁻¹ s⁻¹
same,Kd,[8],60.2 nM
same,koff,[8],0.00425 s⁻¹
same,kon,[8],70600 M⁻¹ s⁻¹
"BU5 (bispecific antibody, human IgG1, kappa, L234A L235A) heavy 1: QVQLQQSGAEVKKPGSSVRVSCKASGGTFNNNAINWVRQAPGQGLEWMGGIIPMFGTAKYSQNFQGRVAITADESTGTASMELSSLRSEDTAVYYCARSRDLLLFPHHALSPWGRGTMVTVSSGGGGSGIPPKIECLPIDISIDEGKVLTVASAFTGEPTPEVTWSTGGRKIHSQEQGRFHIENTDDLTTLIIKDVQKQDGGLYTLTLRNEFGSDSATVNIHIRSIDKTHTCPPCPAPEAAGGPSVFLFPPKPKDTLMISRTPEVTCVVVDVSHEDPEVKFNWYVDGVEVHNAKTKPREEQYNSTYRVVSVLTVLHQDWLNGKEYKCKVSNKALPAPIEKTISKAKGQPREPQVCTLPPSREEMTKNQVSLSCAVKGFYPSDIAVEWESNGQPENNYKTTPPVLDSDGSFFLVSKLTVDKSRWQQGNVFSCSVMHEALHNHYTQKSLSLSPGK light 1: SSELTQDPAVSVALGQTVRVTCQGDSLRSYYASWYQQKPGQAPVLVIYGKNNRPSGIPDRFSGSSSGNTASLTITGAQAEDEADYYCSSRDSSGNHWVFGGGTELTVLGGGGSSGAPRFLTRPLAFVVSVGKDATLSSQIVGNPTPQVSWEKDKQPVTAGARFRLAQDGDLYRLKILDLQLSDSGQYVSRARNAIGEAFACLGLQVDAEA heavy 2: not shown light 2: not shown",Kd,[9],0.0661 nM
same,koff,[9],0.000104 s⁻¹
same,kon,[9],1.57e+06 M⁻¹ s⁻¹
same,Kd,[10],0.537 nM
same,koff,[10],8.44e-05 s⁻¹
same,kon,[10],157000 M⁻¹ s⁻¹
same,Kd,[5],0.0664 nM
same,koff,[5],0.000102 s⁻¹
same,kon,[5],1.54e+06 M⁻¹ s⁻¹
same,Kd,[3],0.393 nM
same,koff,[3],7.62e-05 s⁻¹
same,kon,[3],194000 M⁻¹ s⁻¹
J2 (antibody) heavy: not shown light: SYELTQPLSVSVALGQTARITCSGDNIGSKYVHWYQQKPGQAPVLVIYGDNERPSGIPERFSGSNSGNTATLTISRAQAGDEADYYCQAADWVDFYVFGGGTKLTVLFDPVYKVKPNPPHNLSVINSEELSSILKLTWTNPSIKSVIILKYNIQYRTKDASTWSQIPPEDTASTRSSFTVQDLKPFTEYVFRIRCMKEDGKGYWSDWSEEASGIT,EC50,[11],179 nM
"BU4 (bispecific antibody, human IgG1, kappa, L234A L235A) heavy 1: not shown light 1: not shown heavy 2: QVQLQQSGAEVKKPGSSVRVSCKASGGTFNNNAINWVRQAPGQGLEWMGGIIPMFGTAKYSQNFQGRVAITADESTGTASMELSSLRSEDTAVYYCARSRDLLLFPHHALSPWGRGTMVTVSSGGGGSKAGIRGIPPKIECLPSDISIDEGKVLTVASAFTGEPTPEVTWSTGGRKIHSQEQGRFHIESTEDLTTLIISDVQKQDGGLYSLSLGNEFGSDSATVNIHIRSIDKTHTCPPCPAPEAAGGPSVFLFPPKPKDTLMISRTPEVTCVVVDVSHEDPEVKFNWYVDGVEVHNAKTKPREEQYNSTYRVVSVLTVLHQDWLNGKEYKCKVSNKALPAPIEKTISKAKGQPREPQVCTLPPSREEMTKNQVSLSCAVKGFYPSDIAVEWESNGQPENNYKTTPPVLDSDGSFFLVSKLTVDKSRWQQGNVFSCSVMHEALHNHYTQKSLSLSPGK light 2: SSELTQDPAVSVALGQTVRVTCQGDSLRSYYASWYQQKPGQAPVLVIYGKNNRPSGIPDRFSGSSSGNTASLTITGAQAEDEADYYCSSRDSSGNHWVFGGGTELTVLGGGGSDQPQFSGAPRFLTRPLSYVVSVGKDASLSSQIVGNPTPQVSWEKDQLPVTAGARFRLAQDGDLYRLKILDLQLSDSGQYVSRARNAIGEAFACVGLEVGAEA",EC50,[6],0.0443 nM
same,EC50,[4],0.506 nM
J3 (antibody) heavy: not shown light: SYELTQPLSVSVALGQTARITCSGDNIGSKYVHWYQQKPGQAPVLVIYGDNERPSGIPERFSGSNSGNTATLTISRAQAGDEADYYCQAADWVDFYVFGGGTKLTVLGIPPKIEALPSDISIDEGKVLTVACAFTGEPTPEVTWSCGGRKIHSQEQGRFHIENTDDLTTLIIMDVQKQDGGLYTLSLGNEFGSDSATVNIHIRSI,EC50,[11],0.25 nM
"J0 (antibody, human IgG1, lambda) heavy: not shown light: SYELTQPLSVSVALGQTARITCSGDNIGSKYVHWYQQKPGQAPVLVIYGDNERPSGIPERFSGSNSGNTATLTISRAQAGDEADYYCQAADWVDFYVFGGGTKLTVLGQPKAAPSVTLFPPSSEELQANKATLVCLISDFYPGAVTVAWKADSSPVKAGVETTTPSKQSNNKYAASSYLSLTPEQWKSHRSYSCQVTHEGSTVEKTVAPTECS",EC50,[11],0.08 nM
